Here are results for 4 molecules from paper PMC7293249 (Nature Communications, 2020).

The target of one assay is human FXa (Homo sapiens, UniProt P00742). Nature of the assay: ELISA; data not shown; human FIIa, FVIIa, FIXa, FXa, FXIa, FXIIa coated directly on Maxisorp plates at 5–10 µg/mL; anti-APC antibodies at 20 nM. The following applies: both partners purified. In general terms: In an ELISA, binding on a coated surface is turned into a signal by an enzyme label.
In a further assay the target is human FIXa (Homo sapiens, UniProt P00740). The assay is described as above. The following applies: both partners purified.
For the next assay, the target named is human FXIIa (Homo sapiens, UniProt P00748). The assay is described as above. To be noted: both partners purified.
In the next assay the target is human FXIa (Homo sapiens, UniProt P03951). The description is as above. To be noted: both partners purified.
Another assay addresses T1, human FIIa (Homo sapiens, UniProt P00734).
T1 construct: human FIIa (thrombin), light chain; human FIIa (thrombin), heavy (catalytic) chain; also called thrombin
Described as above. To be noted: both partners purified.

Another assay addresses human FVIIa (Homo sapiens, UniProt P08709). Described as above. To be noted: both partners purified.
Assay [1] concerns the target T2, monkey activated protein C (Macaca sp. (monkey plasma, species not …, UniProt A0A1D5QSH6)). Description: cell-based or functional assay.
Another assay has as its target T3, dog activated protein C (Canis lupus familiaris, UniProt Q28278).
T3 construct: also called dog APC
Nature of the assay: ELISA; data not shown; species cross-reactivity; species' APC or PC coated directly on Maxisorp plates at 100 ng/well in PBS/Ca2+; antibodies titrated. To be noted: both partners purified.

The target in assay [2] is T2, monkey activated protein C. The assay is described as above. To be noted: both partners purified.
Assay [3] addresses T4, rabbit activated protein C (Oryctolagus cuniculus, UniProt Q28661).
T4 construct: also called rabbit APC
Described as above. To be noted: both partners purified.

Assay [4] has as its target T5, plasma-derived hAPC-Gla-domainless (APC-GD) (Homo sapiens, UniProt P04070).
T5 construct: also called APC (in the crystal structures); source: bought: plasma-derived, Enzyme Research Laboratories
Description: ELISA; APC-binding ELISA of the purified Fabs on human APC and Gla-domainless APC; format not told. The following applies: both partners purified.

In assay [5] the target is T6, human protein C (zymogen) (Homo sapiens, UniProt P04070).
T6 construct: human protein C zymogen, light chain; also called hPC; PC; source: bought: plasma-derived, Enzyme Research Laboratories
Description: SPR; Biacore T200, 25 °C, HBS-P+ (10 mM HEPES pH 7.4, 150 mM NaCl, 0.05% P20) with 1 mg/mL BSA; mAbs captured by immobilised mouse anti-human Fc antibody on CM5; hAPC injected at 1.56-200 nM, hPC at 1.56-1000 nM; 1:1 Langmuir fit. To be noted: both partners purified.

In assay [6] the target is T7, human activated protein C (Homo sapiens).
T7 construct: also called hAPC; APC
T7 chain 1: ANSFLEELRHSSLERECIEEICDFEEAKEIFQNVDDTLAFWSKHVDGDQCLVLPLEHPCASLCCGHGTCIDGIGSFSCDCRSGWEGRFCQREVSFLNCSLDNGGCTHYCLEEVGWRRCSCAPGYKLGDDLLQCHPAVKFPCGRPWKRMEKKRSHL
T7 chain 2: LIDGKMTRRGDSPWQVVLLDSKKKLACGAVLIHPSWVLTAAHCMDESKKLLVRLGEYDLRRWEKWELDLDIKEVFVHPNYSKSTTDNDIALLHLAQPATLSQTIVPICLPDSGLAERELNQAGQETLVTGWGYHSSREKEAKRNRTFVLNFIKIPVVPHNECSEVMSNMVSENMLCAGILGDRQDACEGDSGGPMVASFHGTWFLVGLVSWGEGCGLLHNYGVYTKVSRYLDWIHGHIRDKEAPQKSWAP
Described as above. The following applies: both partners purified.

Assay [7] concerns the target T8, Phe–Pro–Arg–chloromethylketone active-site-blocked APC (PPACK-hAPC) (Homo sapiens, UniProt P04070, active site blocked by Phe–Pro–Arg–chloromethylketone (PPACK)).
T8 construct: also called PPACK-APC
Nature of the assay: ELISA; PPACK-hAPC or hAPC coated onto a MaxiSorp plate at 100 ng per well overnight; IgG or Fab at concentrations starting at 20 nM. The following applies: both partners purified.

Assay [8] deals with T7, human activated protein C. Nature of the assay: cell-based or functional assay.
Assay [9] has as its target T7, human activated protein C. Description: ELISA; hAPC or hPC coated directly on Maxisorp plates at 100 ng/well in PBS/Ca2+; antibodies titrated, 1 h at RT; detection with HRP anti-human Fc. To be noted: both partners purified.
Assay [10] addresses T9, monkey protein C (zymogen) (Macaca sp. (monkey plasma, species not …, UniProt A0A1D5QSH6)).
T9 construct: monkey protein C zymogen, light chain; also called monkey PC
Description: ELISA; data not shown; species cross-reactivity; species' APC or PC coated directly on Maxisorp plates at 100 ng/well in PBS/Ca2+; antibodies titrated. The following applies: both partners purified.

B1: type I anti-APC mAb TPP-2312 (BAY1316786) (antibody, V domains shown)
VH: EVQLLESGGGLVQPGGSLRLSCAASGFTFSSYWMSWVRQAPGKGLEWVSGVSWNGARTHYADSVKGRFTISRDNSKNTLYLQMNSLRAEDTAVYYCALTGRSGWMRFPNWFDPWGQGTLVTVSS
VL: QSVLTQPPSVSGAPGQRVTISCTGSSSNIGAAYDVHWYQQLPGTAPKLLIYGNNKRPSGVPDRFSGSKSGTSASLAITGLQAEDEADYYCQSYDSSLSGSVFGGGTKLTVL
notes: variable region as the heavy chain of C25K23 with S56A in CDR2, joined to the hIgG2 constant region (CH1-CH2-CH3); as the light chain of C25K23 with K55R in CDR2; hIgG2; Candidate C25K23 was germlined and optimized to become TPP-2312; also called type I mAb; source: HEK293-6E, transiently co-transfected (pTT5), purified (protein A, SEC)
Broadly, the EC50 is the midpoint of the concentration-response curve. In the case of B1, the binding result with human FXa, with human FIXa, with human FXIIa, with human FXIa, with human FIIa and in the assay with human FVIIa was “no binding (tested: 20 nM)” in each case. For the same molecule, the “Protac-aPTT in FVIII-antibody-induced hemophilia A monkey plasma, inhibition of APC anticoagulant activity, IC50” value in assay [1] amounted to 9.3 nM. Besides, the EC50 (in the assay with dog activated protein C; in [2]; in [3]) was about 1 nM throughout.

B2: C25K23Fab (type I Fab, TTP-2781) (Fab, V domains shown)
VH: EVQLLESGGGLVQPGGSLRLSCAASGFTFSSYWMSWVRQAPGKGLEWVSGVSWNGSRTHYADSVKGRFTISRDNSKNTLYLQMNSLRAEDTAVYYCALTGRSGWMRFPNWFDPWGQGTLVTVTS
VL: QSVLTQPPSASGTPGQRVTISCTGSSSNIGAAYDVHWYQQLPGTAPKLLIYGNNKRPSGVPDRFSGSKSGTSASLAISGLRSEDEADYYCQSYDSSLSGSVFGGGTKLTVL
notes: Parent of TPP-2312; also called type I (C25K23) Fab; source: E. coli, purified (Protein A chromatography)
Regarding B2, in assay [4], the EC50 lay within 2 to 4 nM.

B3: type II anti-APC mAb TPP-4885 (BAY1896502) (antibody, V domains shown)
VH: EVQLVESGGGLVQPGGSLRLSCAASGFTFSNYYLNWVRQAPGKGLEWVGDIRLKSNNYEKHYAESVKGRFTISRDDSKNSLYLQMNSLKTEDTAVYYCAREGDYFDYWGQGTLVTVSS
VL: DIVLTQSPASLAVSPGQRATITCKASESVDSFGATFMHWYQQKPGQPPKLLIYLASNLESGVPARFSGSGSGTDFTLTINPVEADDTANYYCQQNNEDPYTFGQGTKLEIK
notes: humanized/optimized from mouse HAPC1573; variable region from the Fab joined to the hIgG2 constant region (CH1-CH2-CH3); humanized/optimized from mouse HAPC1573 (kappa); hIgG2; Derived from HAPC1573 (mIgG1/k) by humanization and optimization; also called type II mAb; BAY 1896052; source: HEK293-6E, transiently co-transfected (pTT5), purified (protein A, SEC)
Usually Kd stands for the equilibrium constant for the complex coming apart. B3: the binding result in assay [5] is reported as “no binding (tested: 1000 nM)”; in [7], “binds”; in the assay with human FXa it was “no binding (tested: 20 nM)”; in the assay with human FIXa, “no binding (tested: 20 nM)”; in the assay with human FXIIa, “no binding (tested: 20 nM)”; with human FXIa, “no binding (tested: 20 nM)”. Besides, the binding result with human FIIa is on record as “no binding (tested: 20 nM)”; with human FVIIa, “no binding (tested: 20 nM)”; in assay [10] it was “no binding”; with dog activated protein C, “no binding”; in assay [3] it was “no binding”. In assay [6], this molecule had a Kd of 10 nM. In assay [1], the “Protac-aPTT in FVIII-antibody-induced hemophilia A monkey plasma, inhibition of APC anticoagulant activity, IC50” value was 19.3 nM. In addition, the “Protac-aPTT in FVIII-antibody-treated normal human plasma, IC50” value in assay [8] turned out to be 12 nM. In [8], the “Protac-aPTT in hemophilia A plasma, inhibition of APC activity, IC50” value was found to be 11.6 nM. The “Protac-aPTT in normal human plasma, inhibition of APC anticoagulant activity, IC50” value in assay [8] was about 7 nM. The figures for the EC50 in [9] and in [2] were 0.8 nM and about 1 nM, respectively.

B4: hu1573Fab (type II Fab, TPP-5040) (Fab, V domains shown)
VH: EVQLVESGGGLVQPGGSLRLSCAASGFTFSNYYLNWVRQAPGKGLEWVGDIRLKSNNYEKHYAESVKGRFTISRDDSKNSLYLQMNSLKTEDTAVYYCAREGDYFDYWGQGTLVTVSS
VL: DIVLTQSPASLAVSPGQRATITCKASESVDSFGATFMHWYQQKPGQPPKLLIYLASNLESGVPARFSGSGSGTDFTLTINPVEADDTANYYCQQNNEDPYTFGQGTKLEIK
notes: Humanized Fab of mouse HAPC1573; also called h1573Fab; type II (h1573) Fab; source: QMCF cells (CHO-based), transiently transfected (pTT5), purified from conditioned medium (KappaSelect, SEC)
B4: in [7], the binding result is on record as “binds”.
